# From the supplement of paper PMC7877785
# ± gives the uncertainty stated by the source.
# Assay: self-splicing fitness, log relative to wild type (ln ratio); higher = more splicing; Tetrahymena group I intron in knt gene, E. coli kanamycin selection, DiMSum; sequences stand for … in CUCUCU…GGAGGGAAAAGUUAUCAGGCAUGCACCUGGUAGCUAGUCUUUAAACCAAUAGAUUGCAUCGGUUUAAAAGGCAAGACCGUCAAAUUGCGGGAAAGGGGUCAACAGCCGUUCAGUACCAAGUCUCAGGGGAAACUUUGAGAUGGCCUUGCAAAGGGUAUGGUAAUAAGCUGACGGACAUGGUCCUAACCACGCAGCCAAGUCCUAAGUCAACAGAUCUUCUGUUGAUAUGGAUGCAGUUCACAGACUAAAUGUCGGUCGGGGAAGAUGUAUUCUUCUCAUAAGAUAUAGUCGGACCUCUCCUUAAUGGGAGCUAGCGGAUGAAGUGAUGCAACACUGGAGCCGCUGGGAACUAAUUUGUAUGCGAAAGUAUAUUGAUUAGUUUUGGAGUACUCGUGGUCG
# Method in brief: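 Pooled colonies went to amplicon sequencing on an Illumina HiSeq 2500 after six replicate transformations. The plates were LB agar with 100 μg/mL carbenicillin, 50 μM IPTG and 0.2% rhamnose, with or without 25 μg/mL kanamycin, incubated overnight at 37°C or 30°C. The E. coli BL21(DE3) library had all eight P1ex-region intron nucleotides randomised, the intron placed in the knt kanamycin-resistance gene on pET-22b(+). DiMSum fitness is the error-weighted combination of replicate fold changes, kanamycin against none, normalised to wild type.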
Sequence,self-splicing fitness (ln) (30 °C),self-splicing fitness (ln) (37 °C)
UCAUAGCAAUAUUACGUUGC,-3.86 ± 0.31,-2.31 ± 0.32
UCCAAGCAAUAUUACGACCC,-3.47 ± 0.22,-1.98 ± 0.17
UCCAAGCAAUAUUACGACGA,-0.735 ± 0.07,0.11 ± 0.096
UCCAAGCAAUAUUACGACGU,-0.266 ± 0.068,0.0245 ± 0.073
UCCAAGCAAUAUUACGAUCU,-3.08 ± 0.26,-2.56 ± 0.22
UCCAAGCAAUAUUACGAUGA,-0.0226 ± 0.05,0.466 ± 0.071
UCCAAGCAAUAUUACGAUUG,-4.13 ± 0.33,-1.78 ± 0.2
UCCAAGCAAUAUUACGCAAG,-3.86 ± 0.32,-2.51 ± 0.26
UCCAAGCAAUAUUACGCACU,-2.28 ± 0.15,-0.918 ± 0.14
UCCAAGCAAUAUUACGCAUA,-1.07 ± 0.096,-0.213 ± 0.087
UCCAAGCAAUAUUACGCCGA,-0.365 ± 0.14,0.242 ± 0.13
UCCAAGCAAUAUUACGCCGU,-0.285 ± 0.13,-0.0434 ± 0.19
UCCAAGCAAUAUUACGCGAA,-2.43 ± 0.13,-0.748 ± 0.12
UCCAAGCAAUAUUACGCGAC,-2.44 ± 0.23,
UCCAAGCAAUAUUACGCUCA,-1.03 ± 0.11,-0.393 ± 0.13
UCCAAGCAAUAUUACGGAGG,-4.42 ± 0.27,-2.81 ± 0.29
UCCAAGCAAUAUUACGGCCA,-0.223 ± 0.11,0.127 ± 0.11
UCCAAGCAAUAUUACGGGCA,-0.884 ± 0.06,0.244 ± 0.074
UCCAAGCAAUAUUACGGGCC,-4.08 ± 0.32,-1.72 ± 0.25
UCCAAGCAAUAUUACGGUUA,-0.451 ± 0.066,0.0448 ± 0.068
UCCAAGCAAUAUUACGUAAA,-1.12 ± 0.089,-0.00199 ± 0.11
UCCAAGCAAUAUUACGUACG,-3.53 ± 0.19,-1.76 ± 0.16
UCCAAGCAAUAUUACGUAGC,-3.38 ± 0.14,-1.38 ± 0.11
UCCAAGCAAUAUUACGUCCA,-1.56 ± 0.11,-0.691 ± 0.11
UCCAAGCAAUAUUACGUCGU,-0.899 ± 0.073,-0.178 ± 0.085

Sequence,self-splicing fitness (ln) (30 °C),self-splicing fitness (ln) (37 °C)
UCCAAGCAAUAUUACGUCUG,-4 ± 0.23,-3.01 ± 0.2
UCCAAGCAAUAUUACGUGGC,-3.9 ± 0.27,-2.97 ± 0.33
UCCAAGCAAUAUUACGUGGU,-2.96 ± 0.1,-1.45 ± 0.092
UCCAAGCAAUAUUACGUUAC,-4.16 ± 0.26,-3.2 ± 0.32
UCCAAGCAAUAUUACGUUCA,-1.4 ± 0.13,-0.51 ± 0.11
UCCAAGCAAUAUUACGUUCU,-2.62 ± 0.1,-3.9 ± 0.29
UCCAAGCAAUAUUACGUUUC,-3.37 ± 0.2,-2.76 ± 0.26
UCCAAGCAAUAUUACGUUUU,-4 ± 0.13,-2.91 ± 0.14
UCCCAGCAAUAUUACGAAAC,-3.52 ± 0.44,-1.93 ± 0.46
UCCCAGCAAUAUUACGAAGA,-0.348 ± 0.084,-0.266 ± 0.09
UCCCAGCAAUAUUACGACGG,-2.95 ± 0.15,-2.15 ± 0.14
UCCCAGCAAUAUUACGAGAG,-3.41 ± 0.29,-2.14 ± 0.21
UCCCAGCAAUAUUACGAGGG,-3.14 ± 0.17,-3.02 ± 0.21
UCCCAGCAAUAUUACGCCCG,-3.3 ± 0.21,-2.65 ± 0.31
UCCCAGCAAUAUUACGCGAG,-3.41 ± 0.14,-2.91 ± 0.2
UCCCAGCAAUAUUACGCGCC,-3.11 ± 0.35,-1.29 ± 0.21
UCCCAGCAAUAUUACGGCCG,-3.44 ± 0.27,-2.02 ± 0.32
UCCCAGCAAUAUUACGGCCU,-2.43 ± 0.16,-0.901 ± 0.17
UCCCAGCAAUAUUACGGUAC,-3.29 ± 0.2,-1.71 ± 0.17
UCCCAGCAAUAUUACGUGAG,-1.52 ± 0.08,-0.669 ± 0.083
UCCGAGCAAUAUUACGAUAU,-1.5 ± 0.22,-2.46 ± 0.41
UCCGAGCAAUAUUACGCAAG,-3.27 ± 0.26,-1.77 ± 0.32
UCCGAGCAAUAUUACGCCGA,-1.56 ± 0.23,-0.047 ± 0.16
UCCGAGCAAUAUUACGCGAU,,-2.3 ± 0.35
UCCGAGCAAUAUUACGCGUC,-3.74 ± 0.37,-1.53 ± 0.26

Sequence,self-splicing fitness (ln) (30 °C),self-splicing fitness (ln) (37 °C)
UCCGAGCAAUAUUACGCGUG,-2.6 ± 0.12,-1.3 ± 0.1
UCCGAGCAAUAUUACGGACC,-2.53 ± 0.28,-1.47 ± 0.36
UCCGAGCAAUAUUACGGCAG,-3.55 ± 0.38,-1.44 ± 0.34
UCCGAGCAAUAUUACGGCCA,-0.297 ± 0.1,-0.233 ± 0.12
UCCGAGCAAUAUUACGGCCU,-3.24 ± 0.3,-2.33 ± 0.38
UCCGAGCAAUAUUACGGCUC,,-0.168 ± 0.28
UCCGAGCAAUAUUACGUACA,-2.89 ± 0.33,
UCCGAGCAAUAUUACGUACC,-2.2 ± 0.2,-1.93 ± 0.37
UCCGAGCAAUAUUACGUUAG,-3.14 ± 0.15,-2.56 ± 0.24
UCCUAGCAAUAUUACGAACA,-2.9 ± 0.29,-1.3 ± 0.22
UCCUAGCAAUAUUACGACAU,-3.634 ± 0.026,-2.16 ± 0.037
UCCUAGCAAUAUUACGACGG,-2.14 ± 0.13,-0.657 ± 0.14
UCCUAGCAAUAUUACGAGGC,-2.31 ± 0.13,-3.06 ± 0.26
UCCUAGCAAUAUUACGCCAA,-3.18 ± 0.28,-2.5 ± 0.25
UCCUAGCAAUAUUACGCUCU,-3.33 ± 0.3,-2.67 ± 0.3
UCCUAGCAAUAUUACGCUUA,-2.77 ± 0.23,-3.22 ± 0.35
UCCUAGCAAUAUUACGGAAA,-1.98 ± 0.23,-2.51 ± 0.29
UCCUAGCAAUAUUACGGCUU,-3.41 ± 0.15,-2.47 ± 0.2
UCCUAGCAAUAUUACGGGAC,-3.32 ± 0.22,-2.73 ± 0.2
UCCUAGCAAUAUUACGGUAA,-0.552 ± 0.12,-0.427 ± 0.11
UCCUAGCAAUAUUACGGUUU,-1.44 ± 0.083,-1.16 ± 0.12
UCCUAGCAAUAUUACGUACA,-2.45 ± 0.27,-0.735 ± 0.16
UCCUAGCAAUAUUACGUAGC,-3.05 ± 0.14,-2.23 ± 0.16
UCCUAGCAAUAUUACGUAUU,-4.31 ± 0.2,-2.48 ± 0.22
UCCUAGCAAUAUUACGUGUG,-2.41 ± 0.28,-2.47 ± 0.22

Sequence,self-splicing fitness (ln) (30 °C),self-splicing fitness (ln) (37 °C)
UCCUAGCAAUAUUACGUGUU,-3.7 ± 0.21,-2.94 ± 0.19
UCCUAGCAAUAUUACGUUGC,-3.64 ± 0.16,-2.74 ± 0.19
UCCUAGCAAUAUUACGUUUA,-2.15 ± 0.18,-2.54 ± 0.23
UCGAAGCAAUAUUACGAAAU,,-2.56 ± 0.41
UCGAAGCAAUAUUACGACAU,-3.755 ± 0.027,-2.29 ± 0.038
UCGAAGCAAUAUUACGAUAC,-3.33 ± 0.25,
UCGAAGCAAUAUUACGAUGC,-2.65 ± 0.15,-1.92 ± 0.18
UCGAAGCAAUAUUACGCACG,-1.8 ± 0.14,-0.85 ± 0.14
UCGAAGCAAUAUUACGCACU,-2.62 ± 0.18,-0.962 ± 0.14
UCGAAGCAAUAUUACGCAGA,-2.28 ± 0.2,-2.85 ± 0.27
UCGAAGCAAUAUUACGCGAU,-3.31 ± 0.32,
UCGAAGCAAUAUUACGCGCC,,-1.49 ± 0.28
UCGAAGCAAUAUUACGCGUC,,-0.484 ± 0.32
UCGAAGCAAUAUUACGCUCA,-2.11 ± 0.19,-0.861 ± 0.23
UCGAAGCAAUAUUACGGACU,-1.07 ± 0.11,0.0804 ± 0.13
UCGAAGCAAUAUUACGGAGA,-2.69 ± 0.24,-2.44 ± 0.32
UCGAAGCAAUAUUACGGAUG,-2.8 ± 0.13,-1.68 ± 0.11
UCGAAGCAAUAUUACGGGCA,-0.603 ± 0.094,-0.507 ± 0.1
UCGAAGCAAUAUUACGGUGA,-0.813 ± 0.077,0.158 ± 0.091
UCGAAGCAAUAUUACGUAAA,-1.72 ± 0.11,-0.804 ± 0.14
UCGAAGCAAUAUUACGUGCA,-0.485 ± 0.096,-0.214 ± 0.095
UCGAAGCAAUAUUACGUGGA,-2.29 ± 0.14,-2.46 ± 0.16
UCGAAGCAAUAUUACGUGUA,-2.47 ± 0.17,-1.71 ± 0.18
